# Experimental data as given in the supplement of paper PMC9170038.
# Test system: MS2 coat protein
# Assay: apparent KD of MS2 coat protein, switch ON state; designed switch direction (-1 OFF switch, 1 ON switch): 1; higher = weaker reporter binding
# Details: FMN input: 0 or 200 uM; Eterna round: R93 (includes R88 designs)
# Summary of the method: (§1)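 Designed RNA switches, transcribed on-chip from Illumina sequencing clusters, were titrated with SNAP-549-labelled MS2 coat protein from 0.7 or 1.5 nM to 3 µM in twofold steps. The solution was 100 mM Tris-HCl pH 7.5, 80 mM KCl, 4 mM MgCl2, with constant ligand or without it. Apparent KD is the median over each design's normalised cluster binding-curve fits.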
row,Sequence,apparent KD of MS2 coat protein [nM]
1,AGAUCUAGAAGGUAGGAUAUGUGUAAAAAUACAUGAGGAUCACCCAUGUGAUGAAUAAAAAGAAAAUAGAAGGACCAUCUAGAUC [Cross swing 3],16.8
2,CCGAGGAAGAGAGAGGAUAUCCAAAGGAAAACAUGAGGAUCACCCAUGUAAAAGGUAGGAAAUUGGGAGAAGGCUCAAGAGAGAG [salish99-ss2-072],38.7
3,"AAACCACAUGAGGAUCACCCAUGUGAAAAAAACAUAGGAUAUGGAAACACGAAAGUGAAACCAGAAGGGUGAAAAA [77%, Mat - Mod of Eli, 27]",24.3
4,AAAAAACAUGAGGAUCACCCAUGUCCUCGGACGUGAGGAUAUGUACAGACUUCGGUCUGUACAGAAGGCAUGUAAA [SS1 - 1051],555
5,CGCGAACAUGAGGAUCACCCAUGUAGCGGGAAACAAGGAUAUGGGAGGCGAAAUCGCGGAUCAGAAGGUGUAAGCG [Laaratat],14.7
6,AAAAAAAGAUCACAGGAUAUACGAAAAAAAACAUGAGGAUCACCCAUGUAAAAAAAAAAAAAAAAGUAGAAGGGUGAUCCAAAAAA,28.5
7,"AGGAAACAUGAGGAUCACCCAUGUAUAAAAAUGGGAGGAUAUACUAAGACGAAAGUCAUAGUAGAAGGCCUAAAAA [76%, Meechl, 8]",24.3
8,UGGAGGAAGAGAGAGGAUAUCCAAAGGAAAACAUGAGGAUCACCCAUGUAAAAGGUAGGAAAUUGGGAGAAGGCUCAAGAGAGAG [salish99-ss2-059],37.2
9,CAGAUACAUGAGGAUCACCCAUGUUAGGUAGAACAAGGAUAUCUAGAUAGAUAAAAAUAUAGAGAAGGUGUAUAAC [JR_SS001_Sub207],19.8
10,CGAAGACAUGAGGAUCACCCAUGUGGGAUUAUGGGAGGAUAUACAAAGACGAGAGUCAGAGUAGAAGGCCUAGGAC [salish99-ss1-127(!)],26
11,"AAACCACAUGAGGAUCACCCAUGUGAAAUACAUACAGGAUAUGCGAAAAGAAACAAAGAAGCAGAAGGGUGAAAAA [75%, Ex sub1, 18]",15.9
12,CGAAGACAUGAGGAUCACCCAUGUGGGAUUAUGGGAGGAUAUACAAAGACGAGAGUCAGAGUAGAAGGCCUAGGAU [salish99-ss1-125(!)],22.4
13,GAAAAACAUGAGGAUCACCCAUGUAGAAAUAUGGGAGGAUAUACAAAGACGAAAGUCAAAGUAGAAGGCCUGAGAA [Mat - Same State 1 - Eli mod - 83],21
14,AAUAUAUUAAGUGAGGAUAUCAUAGGAAAAACAUGAGGAUCACCCAUGUGGGAAACCUGGUCGGGUGAGAAGGCACUUAAUAUAU [Samwise Clockwise 30 - Jieux - Same State 2],37.5
15,AAAAGACAUGAGGAUCACCCAUGUAAAGACAUAGGAGGAUAUGUCUGGAAAAAAGACUGGACAGAAGGCCUUUGUC [SS1 - 62],20
16,GGGAGUAACAGAGAGGAUAUCCAAAGGAAAACAUGAGGAUCACCCAUGUAAAAGGAAGGAAAUUGGGAGAAGGCUCAAAAUAGAA [salish99-ss2-021],13.9
17,UGAAGACAUGAGGAUCACCCAUGUGGGAAUAUGGGAGGAUAUACAAAGACGAGAGUCAGAGUAGAAGGCCUAGGAC [salish99-ss1-98],47.9

row,Sequence,apparent KD of MS2 coat protein [nM]
1,AAGAAACAUGAGGAUCACCCAUGUGAAAGAAACACAGGAUAUGCGAAAAGAAACAAAGAAGCAGAAGGGUGAAGAA [Mat - Same State 1 - Tesla mod - 58],22.6
2,GACCGGGACGCGUAGGAUAUGUAGUGCGCUACAUGAGGAUCACCCAUGUGCGAGACUUCAAAAGAGCAGAAGGGUGUGUGCCCGG [Xegeedri],40.2
3,CGGAGACAUGAGGAUCACCCAUGUGAGAAGAGGCGAGGAUAUCGAAAGAAAGAAGAGAAACGAGAAGGCGCGAGUC [salish99-SS1-078],20.4
4,AUAAAACAUGAGGAUCACCCAUGUCAGAAAUGGCAAGGAUAUAGAAAAUAAAAAUAAAAACUAGAAGGUGCAAAAU [Meechl SS1 R2 m1],74.9
5,CGAGAGGAGAGAGAGGAUAUCCAAAGGAAAACAUGAGGAUCACCCAUGUAGAAGGUAGGAGAUUGGGAGAAGGCUCAAGAAGAAG [salish99-ss2-159],18.2
6,AAAAUACAUGAGGAUCACCCAUGUGAAAAUAUGGGAGGAUAUACGAAAAAUAAAUAAAACGUAGAAGGCCUAAAAA [SS! 1 MT 2],22.2
7,AAAGACAUAGUUCAGGAUAUGGUAAUAGUCACAUGAGGAUCACCCAUGUGCAUUUAUAUGCGCGAUCAGAAGGGAGGUAGAUAUA [SameState2 Malc#18],18.8
8,AAUACACAUAGUCAGGAUAUCAAAAAUAAGACAUGAGGAUCACCCAUGUAAUAAGUAAAAGUAAAUGAGAAGGGACAGGGUGAAA [JR_SS002_Sub402],33
9,"AUAAAAGAAAGGCAGGAUAUCCAAAGAAAAACAUGAGGAUCACCCAUGUAAAGAAAGAAAAAGUGGGAGAAGGGCCAAAAGAAUA [73%, More Fisker Same State 2, D3, 3]",25.3
10,CAGCGCUGUCGAGAGGAUAUGCGGUGAAGGACAUGAGGAUCACCCAUGUAAGCGAUAGCAUUACGGUAGAAGGCUCUGCAGCUGC [Ceriso],95.7
11,AAAAGACAUGAGGAUCACCCAUGUCGAAAGACAUGAGGAUAUGUACAGACUUCGGUCUGUACAGAAGGCAUAAAAA [SS1 - 1061],27
12,AAAACACAUGAGGAUCACCCAUGUAGAAAUAUGGGAGGAUAUACGAAAACGAAAGUCAAAGUAGAAGGCCUAAAAG [saturn 3],30.9
13,"GAGAAACAUGAGGAUCACCCAUGUAGAAAUAUGGGAGGAUAUACAAAGACGAAAGUCAAAGUAGAAGGCCUAAAAG [77%, Mat - Mod of Eli - With 1 more G's]",26
14,GAAAAACAUGAGGAUCACCCAUGUAGAAAUAUGGGAGGAUAUACAAGGACGAAAGUCAAGGUAGAAGGCCUAAAAG [Mat - Same State 1 - Eli mod - 26],33.8
15,AUACAAACGUAUGAGGAUAUCCUUAAUAAAACAUGAGGAUCACCCAUGUGAAUAAAAUAACAAUUGGAGAAGGCAUACGUACAAU [Mat - Same state - Malcolm Mod - D137],16.6
16,AAACAGAUAGGACAGGAUAUGUCGUGAUAAACAUGAGGAUCACCCAUGUGAGACAUCACGUAAUCGCAGAAGGGUCCUGUCUUAC [Aquditiri],16.3

# Test system: MS2 coat protein
# Assay: apparent KD of MS2 coat protein, switch OFF state (with FMN for OFF switches, without FMN for ON switches); designed switch direction (-1 OFF switch, 1 ON switch): 1; higher = weaker reporter binding
# Details: FMN input: 0 or 200 uM; Eterna round: R93 (includes R88 designs)
# Summary of the method: as §1
row,Sequence,apparent KD of MS2 coat protein [nM]
1,AGAUCUAGAAGGUAGGAUAUGUGUAAAAAUACAUGAGGAUCACCCAUGUGAUGAAUAAAAAGAAAAUAGAAGGACCAUCUAGAUC [Cross swing 3],119
2,CCGAGGAAGAGAGAGGAUAUCCAAAGGAAAACAUGAGGAUCACCCAUGUAAAAGGUAGGAAAUUGGGAGAAGGCUCAAGAGAGAG [salish99-ss2-072],47.1
3,"AAACCACAUGAGGAUCACCCAUGUGAAAAAAACAUAGGAUAUGGAAACACGAAAGUGAAACCAGAAGGGUGAAAAA [77%, Mat - Mod of Eli, 27]",23.8
4,AAAAAACAUGAGGAUCACCCAUGUCCUCGGACGUGAGGAUAUGUACAGACUUCGGUCUGUACAGAAGGCAUGUAAA [SS1 - 1051],379
5,CGCGAACAUGAGGAUCACCCAUGUAGCGGGAAACAAGGAUAUGGGAGGCGAAAUCGCGGAUCAGAAGGUGUAAGCG [Laaratat],12.4
6,AAAAAAAGAUCACAGGAUAUACGAAAAAAAACAUGAGGAUCACCCAUGUAAAAAAAAAAAAAAAAGUAGAAGGGUGAUCCAAAAAA,11
7,"AGGAAACAUGAGGAUCACCCAUGUAUAAAAAUGGGAGGAUAUACUAAGACGAAAGUCAUAGUAGAAGGCCUAAAAA [76%, Meechl, 8]",52.6
8,UGGAGGAAGAGAGAGGAUAUCCAAAGGAAAACAUGAGGAUCACCCAUGUAAAAGGUAGGAAAUUGGGAGAAGGCUCAAGAGAGAG [salish99-ss2-059],63.7
9,CAGAUACAUGAGGAUCACCCAUGUUAGGUAGAACAAGGAUAUCUAGAUAGAUAAAAAUAUAGAGAAGGUGUAUAAC [JR_SS001_Sub207],24.2
10,CGAAGACAUGAGGAUCACCCAUGUGGGAUUAUGGGAGGAUAUACAAAGACGAGAGUCAGAGUAGAAGGCCUAGGAC [salish99-ss1-127(!)],33.4
11,"AAACCACAUGAGGAUCACCCAUGUGAAAUACAUACAGGAUAUGCGAAAAGAAACAAAGAAGCAGAAGGGUGAAAAA [75%, Ex sub1, 18]",25.4
12,CGAAGACAUGAGGAUCACCCAUGUGGGAUUAUGGGAGGAUAUACAAAGACGAGAGUCAGAGUAGAAGGCCUAGGAU [salish99-ss1-125(!)],47.8
13,GAAAAACAUGAGGAUCACCCAUGUAGAAAUAUGGGAGGAUAUACAAAGACGAAAGUCAAAGUAGAAGGCCUGAGAA [Mat - Same State 1 - Eli mod - 83],103
14,AAUAUAUUAAGUGAGGAUAUCAUAGGAAAAACAUGAGGAUCACCCAUGUGGGAAACCUGGUCGGGUGAGAAGGCACUUAAUAUAU [Samwise Clockwise 30 - Jieux - Same State 2],217
15,AAAAGACAUGAGGAUCACCCAUGUAAAGACAUAGGAGGAUAUGUCUGGAAAAAAGACUGGACAGAAGGCCUUUGUC [SS1 - 62],20.4
16,GGGAGUAACAGAGAGGAUAUCCAAAGGAAAACAUGAGGAUCACCCAUGUAAAAGGAAGGAAAUUGGGAGAAGGCUCAAAAUAGAA [salish99-ss2-021],27
17,UGAAGACAUGAGGAUCACCCAUGUGGGAAUAUGGGAGGAUAUACAAAGACGAGAGUCAGAGUAGAAGGCCUAGGAC [salish99-ss1-98],133

row,Sequence,apparent KD of MS2 coat protein [nM]
1,AAGAAACAUGAGGAUCACCCAUGUGAAAGAAACACAGGAUAUGCGAAAAGAAACAAAGAAGCAGAAGGGUGAAGAA [Mat - Same State 1 - Tesla mod - 58],39.2
2,GACCGGGACGCGUAGGAUAUGUAGUGCGCUACAUGAGGAUCACCCAUGUGCGAGACUUCAAAAGAGCAGAAGGGUGUGUGCCCGG [Xegeedri],65.8
3,CGGAGACAUGAGGAUCACCCAUGUGAGAAGAGGCGAGGAUAUCGAAAGAAAGAAGAGAAACGAGAAGGCGCGAGUC [salish99-SS1-078],25
4,AUAAAACAUGAGGAUCACCCAUGUCAGAAAUGGCAAGGAUAUAGAAAAUAAAAAUAAAAACUAGAAGGUGCAAAAU [Meechl SS1 R2 m1],198
5,CGAGAGGAGAGAGAGGAUAUCCAAAGGAAAACAUGAGGAUCACCCAUGUAGAAGGUAGGAGAUUGGGAGAAGGCUCAAGAAGAAG [salish99-ss2-159],26
6,AAAAUACAUGAGGAUCACCCAUGUGAAAAUAUGGGAGGAUAUACGAAAAAUAAAUAAAACGUAGAAGGCCUAAAAA [SS! 1 MT 2],165
7,AAAGACAUAGUUCAGGAUAUGGUAAUAGUCACAUGAGGAUCACCCAUGUGCAUUUAUAUGCGCGAUCAGAAGGGAGGUAGAUAUA [SameState2 Malc#18],17.7
8,AAUACACAUAGUCAGGAUAUCAAAAAUAAGACAUGAGGAUCACCCAUGUAAUAAGUAAAAGUAAAUGAGAAGGGACAGGGUGAAA [JR_SS002_Sub402],79.3
9,"AUAAAAGAAAGGCAGGAUAUCCAAAGAAAAACAUGAGGAUCACCCAUGUAAAGAAAGAAAAAGUGGGAGAAGGGCCAAAAGAAUA [73%, More Fisker Same State 2, D3, 3]",27.6
10,CAGCGCUGUCGAGAGGAUAUGCGGUGAAGGACAUGAGGAUCACCCAUGUAAGCGAUAGCAUUACGGUAGAAGGCUCUGCAGCUGC [Ceriso],143
11,AAAAGACAUGAGGAUCACCCAUGUCGAAAGACAUGAGGAUAUGUACAGACUUCGGUCUGUACAGAAGGCAUAAAAA [SS1 - 1061],89.5
12,AAAACACAUGAGGAUCACCCAUGUAGAAAUAUGGGAGGAUAUACGAAAACGAAAGUCAAAGUAGAAGGCCUAAAAG [saturn 3],79
13,"GAGAAACAUGAGGAUCACCCAUGUAGAAAUAUGGGAGGAUAUACAAAGACGAAAGUCAAAGUAGAAGGCCUAAAAG [77%, Mat - Mod of Eli - With 1 more G's]",55.9
14,GAAAAACAUGAGGAUCACCCAUGUAGAAAUAUGGGAGGAUAUACAAGGACGAAAGUCAAGGUAGAAGGCCUAAAAG [Mat - Same State 1 - Eli mod - 26],98.6
15,AUACAAACGUAUGAGGAUAUCCUUAAUAAAACAUGAGGAUCACCCAUGUGAAUAAAAUAACAAUUGGAGAAGGCAUACGUACAAU [Mat - Same state - Malcolm Mod - D137],18.9
16,AAACAGAUAGGACAGGAUAUGUCGUGAUAAACAUGAGGAUCACCCAUGUGAGACAUCACGUAAUCGCAGAAGGGUCCUGUCUUAC [Aquditiri],15.6
